Assay results from patent US20250051467A1 (JIANGSU HENGRUI PHARMACEUTICALS, published 2025).
Substitutions are numbered along the chain they refer to. Names and notes keep the numbering of the source.

B1: Ab10-A12V2-2 (bispecific antibody, human IgG1, kappa, L234A L235A)
heavy: not shown
light: DIQMTQSPSSVSASVGDRVTITCRASQGISSWLAWYQQKPGKAPKLLIYAASSLQSGVPSRFSGSGSGTDFTLTISSLQPEDFATYYCQQANSFPPAFGQGTKVEIKRTVAAPSVFIFPPSDEQLKSGTASVVCLLNNFYPREAKVQWKVDNALQSGNSQESVTEQDSKDSTYSLSSTLTLSKADYEKHKVYACEVTHQGLSSPVTKSFNRGEC
notes: divalent for CD40
B2: Ab10-A12V2-4 (bispecific antibody, human IgG1, kappa, L234A L235A)
heavy: not shown
light: B1 light
notes: Ab10 IgG1 (L234A/L235A) with two A12V2 VHHs in tandem on each heavy chain C-terminus; tetravalent for CD40
B3: A297V3-Fc (Fc fusion)
chain: EVQLVESGGGLVQPGGSLRLSCAASGFTFSRYGMKWVRQAPGKGLEWVSTINSHGDTTYYADSVKGRFTISRDNAKNSLYLQMNSLRAEDTAVYYCLRIDYSDYSSRGQGTLVTVSSEPKSADKTHTCPPCPAPELLGGPSVFLFPPKPKDTLMISRTPEVTCVVVDVEHEDPEVKFNWYVDGVEVHNAKTKPREEQYNSTYRVVSVLTVLHQDWLNGKEYKCKVSSKAFPAPIEKTISKAKGQPREPQVYTLPPSRDELTKNQVSLTCLVKGFYPSDIAVEWESNGQPENNYKTTPPVLDSDGSFFLYSKLTVDKSRWQQGNVFSCSVMHEALHNHYTQKSLSLSPGK
B4: A297V2-Fc (Fc fusion)
chain: B3 chain with E1Q, L11V, V93L, L112M
B5: A297V4-Fc (Fc fusion)
chain: B3 chain with T57S, A75S, S78T, R98K
B6: A12V1-Fc (Fc fusion)
chain: EVQLVESGGGLVQPGGSLRLSCAASGFTFSNYGMKWVRQAPGKGLEWVSTILSQGGSTYYADSVKGRFTISRDNAKNSLYLQMNSLRAEDTALYYCARVDWSDYSPRGQGTMVTVSSEPKSADKTHTCPPCPAPELLGGPSVFLFPPKPKDTLMISRTPEVTCVVVDVEHEDPEVKFNWYVDGVEVHNAKTKPREEQYNSTYRVVSVLTVLHQDWLNGKEYKCKVSSKAFPAPIEKTISKAKGQPREPQVYTLPPSRDELTKNQVSLTCLVKGFYPSDIAVEWESNGQPENNYKTTPPVLDSDGSFFLYSKLTVDKSRWQQGNVFSCSVMHEALHNHYTQKSLSLSPGK
B7: A12V3-Fc (Fc fusion)
chain: B6 chain with L4V, A75S, S78T, L93V, A97L, M112Q
B8: A297V1-Fc (Fc fusion)
chain: B3 chain with E1Q, L11V, V93L, L97A, L112M
B9: A12V2-Fc (Fc fusion)
chain: B6 chain with A97L, M112Q

Key:
human FAP on CHO cells = target: T1, human FAP on CHO cells (human, UniProt Q12884 1-760); assay: FACS, CHOK1 cells stably expressing human FAP
T1 construct: whole, on cells; also called CHO cell line overexpressing human FAP; CHOK1/FAP
Method: (§1) In this experiment, the binding of the anti-FAP/CD40 bispecific antibodies to stably transfected strains of CHOK1 cells that highly express human FAP, cynomolgus monkey FAP and mouse FAP was measured by FACS.

mouse FAP on CHOK1 cells = target: T2, mouse FAP on CHOK1 cells (mouse, UniProt P97321 1-761); assay: FACS, CHOK1 cells stably expressing mouse FAP
T2 construct: whole, on cells; also called cell surface mouse FAP
T2 sequence (P97321 whole entry): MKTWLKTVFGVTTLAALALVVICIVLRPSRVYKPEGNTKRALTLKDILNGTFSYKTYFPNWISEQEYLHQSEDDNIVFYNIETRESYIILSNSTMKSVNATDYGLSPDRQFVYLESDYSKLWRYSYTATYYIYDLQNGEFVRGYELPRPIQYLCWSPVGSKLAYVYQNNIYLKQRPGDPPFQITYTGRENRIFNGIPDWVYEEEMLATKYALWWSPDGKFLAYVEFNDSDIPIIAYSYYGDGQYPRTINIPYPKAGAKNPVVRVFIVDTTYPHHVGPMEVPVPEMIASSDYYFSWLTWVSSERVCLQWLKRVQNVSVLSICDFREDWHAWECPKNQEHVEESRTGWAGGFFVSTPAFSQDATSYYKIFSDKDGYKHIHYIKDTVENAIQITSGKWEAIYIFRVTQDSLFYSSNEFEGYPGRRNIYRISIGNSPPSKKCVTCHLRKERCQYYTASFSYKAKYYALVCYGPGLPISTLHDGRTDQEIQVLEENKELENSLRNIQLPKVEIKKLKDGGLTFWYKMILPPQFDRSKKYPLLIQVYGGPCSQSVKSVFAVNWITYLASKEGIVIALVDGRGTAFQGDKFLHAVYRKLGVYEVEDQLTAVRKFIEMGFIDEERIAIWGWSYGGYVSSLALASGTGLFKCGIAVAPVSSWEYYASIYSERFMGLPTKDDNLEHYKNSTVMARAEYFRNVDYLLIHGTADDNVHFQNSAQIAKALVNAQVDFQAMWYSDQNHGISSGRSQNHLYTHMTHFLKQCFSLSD
Method: as §1

[1] = target: T3, human CD40 on cells (Raji cells; HEK-Blue CD40L cells; human dendritic cells) (human, UniProt P25942 21-277); assay: FACS, HEK-Blue CD40L cells expressing human CD40
T3 construct: whole, on cells; One entry for untagged full-length human CD40 on cells; also called Raji cell surface human CD40; human cell surface CD40 antigen
T3 sequence (P25942 21-277): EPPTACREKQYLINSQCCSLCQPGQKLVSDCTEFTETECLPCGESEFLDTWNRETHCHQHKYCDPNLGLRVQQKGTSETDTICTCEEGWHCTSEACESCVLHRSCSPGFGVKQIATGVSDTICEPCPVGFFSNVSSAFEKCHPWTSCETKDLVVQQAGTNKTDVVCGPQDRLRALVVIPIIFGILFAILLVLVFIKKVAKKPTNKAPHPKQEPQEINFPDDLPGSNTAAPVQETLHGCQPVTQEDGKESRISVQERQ
Method: (§2) The binding of the bispecific antibodies to cell surface CD40 was measured by FACS, including HEK-Blue™CD40L cells highly expressing human CD40 (Invivogen, Cat #hkb-cd40), and HEK293 cells that were transiently transfected with cynomolgus monkey CD40 plasmids (Sino Biological, cat #CG90970-UT) and thus made to highly express cynomolgus monkey CD40. […] See FIGS. 9A, 9B and 11 and Table 21 for details.

[2] = target: T4, cynomolgus monkey FAP on CHOK1 cells (cynomolgus monkey); assay: FACS, CHOK1 cells stably expressing cynomolgus monkey FAP
T4 construct: whole, on cells
Method: as §1

[3] = target: T5, cynomolgus monkey CD40 on HEK293 cells (cynomolgus monkey, UniProt G7PG38 21-278); assay: FACS, HEK293 cells transiently expressing cynomolgus monkey CD40
T5 construct: whole, on cells
Method: as §2

[4] = target: T6, human FAP protein (Acro, FAP-H5244) (human, UniProt Q12884 26-760); assay: SPR (Biacore 8K), antibody captured by anti-human IgG Fc, human FAP analyte
T6 construct: Bought protein
Method: (§3) The affinities of the anti-FAP/CD40 bispecific antibodies for their antigens, the human FAP protein (Acro, FAP-H5244) and the human CD40 protein (Acro, CD0-H5228), were measured by SPR (GE Healthcare; Biacore 8K). A CM5 sensor chip was used, and HBS-EP+buffer solution (10 mM HEPES, 150 mM NaCl, 3 mM EDTA, 0.05% surfactant P20) was used as the mobile phase. An anti-human IgG (Fc) antibody was immobilized by amino coupling. The test antibodies were separately diluted in HBS-EP+buffer solution as ligands and captured by the anti-human IgG (Fc) antibody on chip channels. Antigenic proteins of different species were used as analytes.

h-CD40-His = target: T7, h-CD40-His (human, UniProt P25942 21-193); assay: SPR (Biacore 8K), antibody captured by anti-human IgG Fc, human CD40 analyte
T7 construct: range 21-193; Bought His-tagged recombinant protein; also called human CD40 protein (Acro, CD0-H5228); human CD40
T7 sequence (P25942 21-193 limits assumed): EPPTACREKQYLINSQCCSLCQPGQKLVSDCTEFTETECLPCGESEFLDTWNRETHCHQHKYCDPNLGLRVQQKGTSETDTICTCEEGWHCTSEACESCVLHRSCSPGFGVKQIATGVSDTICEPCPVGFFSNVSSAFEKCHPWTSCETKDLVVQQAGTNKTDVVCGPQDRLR
Method: as §3

[5] = target: T3, human CD40 on cells (Raji cells; …); assay: cell-based or functional assay
[6] = target: T8, human CD40 with C-terminal Flag tag on HEK293 cells (human, UniProt P25942 21-277); assay: FACS, HEK293 cells transiently expressing human CD40
T8 construct: whole, on cells; also called HEK293 cells highly expressing CD40; cell strain highly expressing human CD40
T8 sequence (P25942 other isoform, or with tags, fused parts or gaps): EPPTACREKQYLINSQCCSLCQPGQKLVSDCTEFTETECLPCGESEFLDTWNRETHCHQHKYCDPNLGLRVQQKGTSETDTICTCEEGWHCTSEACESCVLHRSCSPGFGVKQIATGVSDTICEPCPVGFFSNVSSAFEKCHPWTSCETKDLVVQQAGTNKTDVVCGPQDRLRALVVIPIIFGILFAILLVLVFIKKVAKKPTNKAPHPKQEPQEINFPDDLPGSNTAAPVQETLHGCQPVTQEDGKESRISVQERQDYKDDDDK
Method: The ability of the humanized antibodies to bind to cells highly expressing the human antigen protein CD40 was measured by FACS. HEK293 cells were transiently transfected with CD40 plasmids (CD40 cDNA ORF Clone, Human, C-[…] (Flag®) Tag; Sino Biological; HG10774-CF), yielding HEK293 cells highly expressing CD40. The resulting cells were resuspended in the flow cytometry staining buffer ([…]), and the test antibodies that had been serially diluted to different concentrations were added. After 1 h of incubation on ice, the cells were washed with PBS and centrifuged at 400 g for 5 min. A goat anti-human Fc antibody labeled with the fluorescent group Alexa Fluor 647 was added as a secondary antibody, and the cells were stained in an ice bath for 1 h. After two washes with PBS, the fluorescent signals on the cell surface were detected by FACS. The humanized antibodies of the present disclosure all have relatively high affinities for the cell strain highly expressing CD40.

FcγRIIb-mediated activation of HEK-Blue CD40L cells, EC50 [5] [pM] | FcγRIIb-mediated activation of HEK-Blue CD40L cells, Emax (relative fluorescence intensity) [5] | EC50 [6] [nM] | Emax (MFI) [6] [MFI] | other results | Binder
 |  |  |  | EC50 (human FAP on CHO cells): 2.72 nM; Emax (MFI) (human FAP on CHO cells): 74000 MFI; EC50 (mouse FAP on CHOK1 cells): 4.32 nM; Emax (MFI) (mouse FAP on CHOK1 cells): 19500 MFI; EC50 [1]: 2.4 nM; Emax (MFI) [1]: 7570 MFI; EC50 [2]: 5.65 nM; Emax (MFI) [2]: 45000 MFI; EC50 [3]: 2.76 nM; Emax (MFI) [3]: 6610 MFI | B1
 |  |  |  | EC50 (human FAP on CHO cells): 2.57 nM; Emax (MFI) (human FAP on CHO cells): 64900 MFI; EC50 (mouse FAP on CHOK1 cells): 4.43 nM; Emax (MFI) (mouse FAP on CHOK1 cells): 19000 MFI; EC50 [1]: 0.79 nM; Emax (MFI) [1]: 4640 MFI; EC50 [2]: 2.26 nM; Emax (MFI) [2]: 43200 MFI; EC50 [3]: 3.24 nM; Emax (MFI) [3]: 6540 MFI; Kd [4]: 0.294 nM; koff [4]: 5.14e-05 s⁻¹; kon [4]: 175000 M⁻¹ s⁻¹; Kd (h-CD40-His): 29 nM; koff (h-CD40-His): 0.002 s⁻¹; kon (h-CD40-His): 69000 M⁻¹ s⁻¹ | B2
6 | 12.8 relative fluorescence intensity | 1.25 | 12800 |  | B3
5 | 20 relative fluorescence intensity | 1.07 | 12800 |  | B4
38 | 13.3 relative fluorescence intensity | 2.7 | 8260 |  | B5
9 | 21.6 relative fluorescence intensity | 2.13 | 16600 |  | B6
11 | 19.1 relative fluorescence intensity | 1.74 | 16900 |  | B7
21 | 18.4 relative fluorescence intensity | 1.11 | 7300 |  | B8
2 | 18.6 relative fluorescence intensity | 0.42 | 16600 |  | B9
